Results from patent US20160326240A1.

T1: Rat RGMa-His (rat) (UniProt D4A188)
T1 sequence: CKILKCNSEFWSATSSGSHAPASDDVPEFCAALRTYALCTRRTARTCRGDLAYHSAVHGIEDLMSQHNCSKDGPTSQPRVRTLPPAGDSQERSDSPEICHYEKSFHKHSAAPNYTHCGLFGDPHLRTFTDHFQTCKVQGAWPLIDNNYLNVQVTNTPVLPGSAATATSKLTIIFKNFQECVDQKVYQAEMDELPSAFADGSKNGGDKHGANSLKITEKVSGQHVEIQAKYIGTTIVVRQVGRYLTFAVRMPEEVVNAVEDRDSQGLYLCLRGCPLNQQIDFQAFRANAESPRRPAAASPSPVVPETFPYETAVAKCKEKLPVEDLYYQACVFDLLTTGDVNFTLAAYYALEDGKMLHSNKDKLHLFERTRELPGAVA


target: T1, Rat RGMa-His (rat); test: BIAcore

Kd [nM]	koff [s⁻¹]	kon [M⁻¹ s⁻¹]	Binder
19	0.00048	26000	AE12-1 (antibody, V domains shown) VH: EVQLVQSGAEVKKPGASVKVSCKASGYTFTSHGISWVRQAPGQGLDWMGWISPYSGNTNYAQKLQGRVTMTTDTSTSTAYMELSSLRSEDTAVYYCARVGSGPYYYMDVWGQGTLVTVSS VL: QSALTQPRSVSGSPGQSVTISCTGTSSSVGDSIYVSWYQQHPGKAPKLMLYDVTKRPSGVPDRFSGSKSGNTASLTISGLQAEDEADYYCCSYAGTDTLFGGGTKVTVL
17	0.00028	16000	AE12-1-K (antibody, V domains shown) VH: EVQLVQSGAEVKKPGASVKVSCKASGYTFTSHGISWVRQAPGQGLDWMGWISPYSGNTNYAQKLQGRVTMTTDTSTSTAYMELSSLRSEDTAVYYCARVGSGPYYYMDVWGQGTLVTVSS VL: QSALTQPRSVSGSPGQSVTISCTGTSSSVGDSIYVSWYQQHPGKAPKLMLYDVTKRPSGVPDRFSGSKSGNTASLTISGLQAEDEADYYCKSYAGTDTLFGGGTKVTVL
5.2	0.00014	26000	AE12-1-F (antibody, V domains shown) VH: EVQLVQSGAEVKKPGASVKVSCKASGYTFTSHGISWVRQAPGQGLDWMGWISPYSGNTNYAQKLQGRVTMTTDTSTSTAYMELSSLRSEDTAVYYCARVGSGPYYYMDVWGQGTLVTVSS VL: QSALTQPRSVSGSPGQSVTISCTGTSSSVGDSIYVSWYQQHPGKAPKLMLYDVTKRPSGVPDRFSGSKSGNTASLTISGLQAEDEADYYCFSYAGTDTLFGGGTKVTVL
12	0.00039	32000	AE12-1-L (antibody, V domains shown) VH: EVQLVQSGAEVKKPGASVKVSCKASGYTFTSHGISWVRQAPGQGLDWMGWISPYSGNTNYAQKLQGRVTMTTDTSTSTAYMELSSLRSEDTAVYYCARVGSGPYYYMDVWGQGTLVTVSS VL: QSALTQPRSVSGSPGQSVTISCTGTSSSVGDSIYVSWYQQHPGKAPKLMLYDVTKRPSGVPDRFSGSKSGNTASLTISGLQAEDEADYYCLSYAGTDTLFGGGTKVTVL
5	6.9e-05	14000	AE12-1-Y (antibody, V domains shown) VH: EVQLVQSGAEVKKPGASVKVSCKASGYTFTSHGISWVRQAPGQGLDWMGWISPYSGNTNYAQKLQGRVTMTTDTSTSTAYMELSSLRSEDTAVYYCARVGSGPYYYMDVWGQGTLVTVSS VL: QSALTQPRSVSGSPGQSVTISCTGTSSSVGDSIYVSWYQQHPGKAPKLMLYDVTKRPSGVPDRFSGSKSGNTASLTISGLQAEDEADYYCYSYAGTDTLFGGGTKVTVL
15	0.00032	220000	AE12-1-V (antibody, V domains shown) VH: EVQLVQSGAEVKKPGASVKVSCKASGYTFTSHGISWVRQAPGQGLDWMGWISPYSGNTNYAQKLQGRVTMTTDTSTSTAYMELSSLRSEDTAVYYCARVGSGPYYYMDVWGQGTLVTVSS VL: QSALTQPRSVSGSPGQSVTISCTGTSSSVGDSIYVSWYQQHPGKAPKLMLYDVTKRPSGVPDRFSGSKSGNTASLTISGLQAEDEADYYCVSYAGTDTLFGGGTKVTVL
8.6	0.00025	29000	AE12-1-H (antibody, V domains shown) VH: EVQLVQSGAEVKKPGASVKVSCKASGYTFTSHGISWVRQAPGQGLDWMGWISPYSGNTNYAQKLQGRVTMTTDTSTSTAYMELSSLRSEDTAVYYCARVGSGPYYYMDVWGQGTLVTVSS VL: QSALTQPRSVSGSPGQSVTISCTGTSSSVGDSIYVSWYQQHPGKAPKLMLYDVTKRPSGVPDRFSGSKSGNTASLTISGLQAEDEADYYCHSYAGTDTLFGGGTKVTVL
12	0.00032	28000	AE12-1-I (antibody, V domains shown) VH: EVQLVQSGAEVKKPGASVKVSCKASGYTFTSHGISWVRQAPGQGLDWMGWISPYSGNTNYAQKLQGRVTMTTDTSTSTAYMELSSLRSEDTAVYYCARVGSGPYYYMDVWGQGTLVTVSS VL: QSALTQPRSVSGSPGQSVTISCTGTSSSVGDSIYVSWYQQHPGKAPKLMLYDVTKRPSGVPDRFSGSKSGNTASLTISGLQAEDEADYYCISYAGTDTLFGGGTKVTVL
